Laboratory results published in patent publication WO2022194311A2.
pKd: −log10 of the molar value.

Experiments:
Assay in all cases: SPR (Biacore 8K), His-tagged FcRn captured by anti-His antibody on CM5 chip, pH 6.0
human FcRn (human) = human FcRn (human) (UniProt P55899)
rat FcRn (rat) = rat FcRn (rat) (UniProt P13599)
[1] = biological target: cynomolgus monkey FcRn (cynomolgus monkey) (UniProt Q8SPV9)

Measured: pKd

Chain of rat FcRn (rat) (P13599 23-298 limits assumed, form in doubt): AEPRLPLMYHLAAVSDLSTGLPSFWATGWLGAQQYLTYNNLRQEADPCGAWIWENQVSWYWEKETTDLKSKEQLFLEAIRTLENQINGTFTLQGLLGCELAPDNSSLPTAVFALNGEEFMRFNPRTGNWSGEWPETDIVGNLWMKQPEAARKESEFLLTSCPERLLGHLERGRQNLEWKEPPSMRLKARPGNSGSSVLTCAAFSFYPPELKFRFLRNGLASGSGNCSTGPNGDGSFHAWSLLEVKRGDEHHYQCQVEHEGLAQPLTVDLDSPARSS
Chain of cynomolgus monkey FcRn (cynomolgus monkey) (Q8SPV9 24-297 limits assumed, form in doubt): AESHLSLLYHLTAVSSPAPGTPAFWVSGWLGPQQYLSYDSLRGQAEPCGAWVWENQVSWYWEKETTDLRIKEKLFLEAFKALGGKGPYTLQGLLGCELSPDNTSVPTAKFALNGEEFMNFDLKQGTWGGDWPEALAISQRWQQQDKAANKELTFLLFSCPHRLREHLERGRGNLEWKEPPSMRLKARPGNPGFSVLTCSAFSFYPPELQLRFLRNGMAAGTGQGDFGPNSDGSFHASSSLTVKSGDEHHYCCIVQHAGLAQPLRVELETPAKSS
Chain of human FcRn (human) (P55899 24-297 limits assumed, form in doubt): as the sequence (Q8SPV9 24-297 limits assumed, form in doubt) above, with D39N, Q44E, S99G, G189S, N190S, M217L, T269S counted along it

secukinumab (Cosentyx) (antibody)
8.00: all assays above
